{
  "source": "patent US20240076371A1",
  "about": "“COMPOSITIONS AND METHODS FOR TREATING OSTEOARTHRITIS, RHEUMATOID ARTHRITIS, AND JOINT AND TENDON DISORDERS” (BOARD OF REGENTS, THE UNIVERSITY OF TEXAS SYSTEM, priority 2021, published 2024)",
  "molecules": {"B1": {"name": "M1 antibody: antibody with variable heavy chain SEQ ID NO: 58 and variable light chain SEQ ID NO: 60; inhibits or blocks opening of Cx43 hemichannel (antibody, V domains shown)", "VH": "EVQLQQPGAELVKPGASVKLSCKASGYTFTSYYMYWVKQRPGQGLEWIGGINPSNGGTNFNEKFKNKATLTVDKSSSTAYMQLSSLTSEDSAVYYCTREGNPYYTMNYWGQGTSVTVSS", "VL": "DIVMTQSPSSLSVSAGEKVTMSCKSSQSLLNSGNQKTYLAWYQQKPGQPPKLLIYGASTRESGVPDRFTGSGSGTDFTLTISSVQAEDLAVYYCQNDHSYPFTFGSGTKLEIK"}},
  "key": {"[1]": {"tested_on": "post-traumatic OA model (DMM) in male C57BL/6 mice", "test": "DMM OA model: immunohistochemistry of Col X and MMP13 in articular cartilage", "type": "in vivo, mouse", "description": "Destabilization of the medial meniscus (DMM) surgery was performed on the right knee joint of mice (Glasson S S, et al. Osteoarthritis and cartilage. 2007; 15(9):1061-9). Briefly, a 3 mm longitudinal incision over the distal patella to proximal tibial plateau was made. The joint capsule immediately medial to the patellar tendon was incised with a #15 blade and the joint capsule opened with micro-iris scissors. Blunt dissection of the fat pad over the intercondylar area was then performed to expose the intercondylar region, providing visualization of the meniscotibial ligament of the medial meniscus. Mild hemorrhage from the fat pad upon blunt dissection was controlled by pressure from absorption spears. Sectioning of medial meniscotibial ligament with micro-surgical knife, with the blade directed proximo-laterally, gave destabilization of the medial meniscus (DMM). Sham surgery was performed with the ligament visualized but not transected. Immunohistochemistry. The ABC (avidin-biotin-peroxidase complex) Immunostaining Assay Kit (Vector Laboratories, PK-6101) was used. Briefly, bone tissue sections were antigen unmasked using sodium citrate buffer (pH 6.0) at 65° C. for 2 h for MMP13 staining and trypsin digestion buffer (pH 7.8) at 37° C. for 30 min for collagen X staining. Bone tissue sections were then treated with goat normal serum for 20 min at room temperature to block nonspecific background staining. Tissue sections were stained with anti-MMP13 polyclonal antibody (1:200 dilution, Abcam, ab39012), or labeled with anti-collagen X monoclonal antibody (1:100 dilution, Thermo Fisher, 14-9771-82) at 4° C. overnight. Then, the sections were incubated for 30 min with biotin-labeled secondary antibody and VECTASTAIN ABC Reagent for 30 min Samples were washed in PBS buffer and developed in DAB (SK4100) chromogen solution (Vector Laboratories, Burlingame, CA, USA). Tissues were then counterstained with VECTOR Hematoxylin (H-3401) for 5 min at room temperature. Slides were then dehydrated, cleared, and mounted. Sections were photographed using the Keyence microscope (BZ-X710, Keyence, Osaka, Japan). The percentage of MMP13 or Col X-positive chondrocytes were quantified using NIH Image J software."}, "[2]": {"tested_on": "knee joint region (synovium)", "test": "In vivo antibody binding pattern in the knee joint (immunofluorescence)", "design": "species or system mouse", "excerpt": "Immunofluorescent staining. The isolated femur and tibia bones were fixed in 4% paraformaldehyde for 2 days prior to decalcification with 10% EDTA (pH 7.5) for 3 weeks, and then dehydrated in 30% sucrose/PBS for 3 days. Samples were embedded in the Tissue-Tek CRYO OCT compound (Thermo Fisher Scientific, Pittsburgh, PA, USA), and 12-μm-thick sections were collected on glass slides. Sections were blocked and permeabilized with 2% goat serum, 2% fish skin gelatin, 0.025% Triton X-100 and 1% bovine serum albumin in PBS. The sections were incubated overnight at 4° C. with affinity-purified antibodies against Cx43 (CT) (1:100) (Cherian P P, et al. The Journal of biological chemistry. 2003; 278(44):43146-56), for 1 hour with the appropriate secondary antibody. Slides were mounted using Vectashield mounting medium (H-1000, Vector Lab). Confocal fluorescence imaging was performed using a confocal laser scanning microscope (LSM770, Carl Zeiss, Oberkochen, Germany).\nM1 antibody binds to synovium and inhibits hemichannel opening in OA. Due to the dense nature of cartilage and large size of antibodies, a widely held perception is that antibodies are unable to penetrate the cartilage matrix. To determine the antibody binding pattern in the knee joint region, M1 antibody (25 mg/kg) with human IgG epitope or saline was intraperitoneally (i.p.) injected at 30 mins after DMM surgery. As shown in the diagram (FIG. 8A), mice were euthanized and perfused before isolation of hindlimbs at one or two weeks after injection. Frozen tissue sections were prepared and immuno-labeled with Alexa Fluor 594-conjugated anti-human IgG secondary antibody. […] The synovium of joints comprises macrophage-like type A cells, which are responsible for phagocytosing synovial fluid, and fibroblast-like type B cells, which produce hyaluronic acid and mucin to nourish and mechanically protect, respectively, the underlying articular cartilage (Donahue H J, et al. Nature reviews Rheumatology. 2017; 14(1):42-51). […]"}, "Cx43 hemichannel": {"target": "T1, Cx43 hemichannel (Mus musculus, UniProt P23242)", "T1 construct": "from tissue; host or cells: synovium of male C57BL/6 mice after DMM surgery (in vivo)", "T1 sequence (P23242 whole entry)": "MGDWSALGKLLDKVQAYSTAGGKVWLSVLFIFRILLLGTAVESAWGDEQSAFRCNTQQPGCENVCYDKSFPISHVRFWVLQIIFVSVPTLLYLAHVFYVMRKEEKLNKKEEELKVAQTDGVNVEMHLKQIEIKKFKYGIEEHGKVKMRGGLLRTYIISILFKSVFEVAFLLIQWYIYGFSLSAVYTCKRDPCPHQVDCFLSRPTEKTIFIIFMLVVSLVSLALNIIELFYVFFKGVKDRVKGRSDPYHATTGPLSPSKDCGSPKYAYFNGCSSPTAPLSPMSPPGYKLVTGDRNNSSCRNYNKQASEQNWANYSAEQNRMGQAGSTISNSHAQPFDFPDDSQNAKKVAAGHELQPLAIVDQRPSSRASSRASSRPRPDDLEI", "test": "In vivo Evans Blue dye uptake assay in synovium after DMM", "details": "25 mg/kg at 30 mins after DMM surgery, Evans Blue 200 mg/kg at two weeks after the treatment; DMM increased opening by 2 folds", "description": "In vivo dye uptake assay. Evans Blue dye (Mw: 900 Da) (200 mg/kg) and FITC-dextran (Mw: 10,000 Da) (200 mg/kg) were co-injected […] post-antibody treatment via the tail vein. One-hour post administration of the dye, mice were anesthetized, and cardiac perfusion was performed with cold PBS and 4% paraformaldehyde. Both hindlimbs were isolated and prepared for frozen sections. Sections were stained with DAPI and photographed using the Keyence microscope (BZ-X710, Keyence, Osaka, Japan). The intensity of dye uptake was quantified by NIH Image J software.\nTo determine the Cx43 hemichannel activity in vivo, Evans Blue dye uptake assay was performed. Mice were treated with saline or Cx43 antibody (M1 antibody) (25 mg/kg) at 30 mins after DMM surgery. Tail vein injection of Evans Blue dye (200 mg/kg) was performed at two weeks after the treatment, and Evans Blue dye uptake intensity was quantified in synovium region. […] Frozen sections prepared from saline-treated mice were immuno-labeled with the M1 antibody, further validated the role of the M1 antibody in blocking the osteoarthritis induced hemichannel opening in synoviocytes that express Cx43 (FIG. 11C)."}},
  "data": [
    {"molecule": "B1", "values": [
      {"measurement": "distribution of MMP13-positive chondrocytes in articular cartilage zones", "setting": "[1]; DMM mice, eight weeks, saline: three zones", "result": "localized mainly in the middle and deep zones"},
      {"measurement": "percentage of Col X positive cells", "setting": "[1]; articular cartilage, eight weeks following DMM, i.p. twice, vehicle-treated 52%", "result": 38, "unit": "%"},
      {"measurement": "percentage of MMP-13-positive cells in the articular cartilage", "setting": "[1]; eight weeks after DMM, i.p. twice, saline-treated 36%", "result": 27, "unit": "%"},
      {"measurement": "MMP13 score, ratio of integrated optical density (IOD) to articular cartilage area", "setting": "[1]; single i.p. injection at 30 minutes post-surgery, eight weeks after DMM, saline 0.17±0.016", "result": "0.10±0.009"},
      {"measurement": "antibody binding site in the knee joint region", "setting": "[2]; 25 mg/kg i.p. at 30 mins after DMM surgery, anti-human IgG secondary antibody", "result": "primarily localized in the synovium region"},
      {"measurement": "antibody signal after administration", "setting": "[2]; 25 mg/kg i.p. at 30 mins after DMM surgery, one or two weeks after injection", "result": "detectable at both one and two weeks"},
      {"measurement": "time after administration at which antibody signals were detected", "setting": "[2]; synovium region", "result": "more than 2 weeks"},
      {"measurement": "DMM-increased hemichannel opening (Evans Blue dye uptake intensity in synovium region)", "setting": "Cx43 hemichannel", "result": "blocked"}
    ]}
  ]
}
